Laboratory results taken from publication PMC4186817, “Expression, Purification, and Structural Insights for the Human Uric Acid Transporter, GLUT9, Using the Xenopus laevis Oocytes System” (PLoS ONE, 2014).

Biological target: the molecule itself
Experiment: SDS-PAGE with silver stain and Western blot (anti-HA); eluate of the cobalt IMAC column (HRV 3C elution) from DDM-solubilised oocyte membranes, 8% SDS polyacrylamide gel

B1: human GLUT9b (SLC2A9b), recombinant (natural protein, UniProt Q9NRM0-2 1-511, looked up)
chain: MKLSKKDRGEDEESDSAKKKLDWSCSLLVASLAGAFGSSFLYGYNLSVVNAPTPYIKAFYNESWERRHGRPIDPDTLTLLWSVTVSIFAIGGLVGTLIVKMIGKVLGRKHTLLANNGFAISAALLMACSLQAGAFEMLIVGRFIMGIDGGVALSVLPMYLSEISPKEIRGSLGQVTAIFICIGVFTGQLLGLPELLGKESTWPYLFGVIVVPAVVQLLSLPFLPDSPRYLLLEKHNEARAVKAFQTFLGKADVSQEVEEVLAESRVQRSIRLVSVLELLRAPYVRWQVVTVIVTMACYQLCGLNAIWFYTNSIFGKAGIPPAKIPYVTLSTGGIETLAAVFSGLVIEHLGRRPLLIGGFGLMGLFFGTLTITLTLQDHAPWVPYLSIVGILAIIASFCSGPGGIPFILTGEFFQQSQRPAAFIIAGTVNWLSNFAVGLLFPFIQKSLDTYCFLVFATICITGAIYLYFVLPETKNRTYAEISQAFSKRNKAYPPEEKIDSAVTDGKINGRP
modifications: N-glycosylated (shift with PNGase; site not given)
notes: human GLUT9 isoform b (SLC2A9b), cDNA from Origene, amplified with primers from the start codon (ATGAAGCTCAGTAAAAAGGACCGAG) to the stop codon; differs from GLUT9a only in the N-terminal residues; Tag order from the N-terminus: 10xHis, FLAG, HRV 3C (PreScission) site, HA, then GLUT9b; The protein was eluted from the cobalt resin by HRV 3C cleavage, so only the HA tag stays on it (it is …)
B1: binds.
